In the assay the target is T1, Extradenticle (Exd), residues 237-310 of isoform A (homeodomain and ten further residues) (Drosophila).
T1 chain: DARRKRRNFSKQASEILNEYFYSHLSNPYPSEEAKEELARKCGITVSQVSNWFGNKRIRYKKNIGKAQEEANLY
Put plainly: crystal structure.

B1: Abdominal-B (AbdB), residues 146-229 of isoform A (W motif, linker and homeodomain) (domain or fragment)
chain: not shown
Turning to B1, the binding result is recorded as “binds”.

Source of the values: publication PMC6166240 (Cell reports, 2018).
